{"source": "patent US20190060430A1", "about": "(published 2019)", "binders": {"B1": {"name": "TCRCD4-CMV#3 (TCR, V domains shown)", "Valpha": "AQSVTQLDSQVPVFEEAPVELRCNYSSSVSVYLFWYVQYPNQGLQLLLKYLSGSTLVKGINGFEAEFNKSQTSFHLRKPSVHISDTAEYFCAVSSYGSSNTGKLIFGQGTTLQVKP", "Vbeta": "NAGVTQTPKFQVLKTGQSMTLQCAQDMNHNSMYWYRQDPGMGLRLIYYSASEGTTDKGEVPNGYNVSRLNKREFSLRLESAAPSQTSVYFCASSTAGGRNYGYTFGSGTRLTVV"}, "B2": {"name": "TCRCD4-CMV#5 (TCR, V domains shown)", "Valpha": "GIQVEQSPPDLILQEGANSTLRCNFSDSVNNLQWFHQNPWGQLINLFYIPSGTKQNGRLSATTVATERYSLLYISSSQTTDSGVYFCAAGSNTGNQFYFGTGTSLTVIP", "Vbeta": "NAGVTQTPKFRVLKTGQSMTLLCAQDMNHEYMYWYRQDPGMGLRLIHYSVGEGTTAKGEVPDGYNVSRLKKQNFLLGLESAAPSQTSVYFCASSSRGYGTDTQYFGPGTRLTVL"}, "B3": {"name": "TCRCD4-NY#5 (TCR, V domains shown)", "Valpha": "AQSVTQLGSHVSVSEGALVLLRCNYSSSVPPYLFWYVQYPNQGLQLLLKYTTGATLVKGINGFEAEFKKSETSFHLTKPSAHMSDAAEYFCAVSRANFGNEKLTFGTGTRLTIIP", "Vbeta": "DTEVTQTPKHLVMGMTNKKSLKCEQHMGHRAMYWYKQKAKKPPELMFVYSYEKLSINESVPSRFSPECPNSSLLNLHLHALQPEDSALYLCASSQDPRGGPQHFGDGTRLSIL"}, "B4": {"name": "TCRCD4-NY#11 (TCR, V domains shown)", "Valpha": "AQSVSQHNHHVILSEAASLELGCNYSYGGTVNLFWYVQYPGQHLQLLLKYFSGDPLVKGIKGFEAEFIKSKFSFNLRKPSVQWSDTAEYFCAVNRRTGNQGGKLIFGQGTELSVKP", "Vbeta": "EAGVAQSPRYKIIEKRQSVAFWCNPISGHATLYWYQQILGQGPKLLIQFQNNGVVDDSQLPKDRFSAERLKGVDSTLKIQPAKLEDSAVYLCASSLGPYIDGAGCTFGSGTRLTVV"}, "B5": {"name": "TCRCD4-TPT#55 (TCR, V domains shown)", "Valpha": "AQTVTQSQPEMSVQEAETVTLSCTYDTSESDYYLFWYKQPPSRQMILVIRQEAYKQQNATENRFSVNFQKAAKSFSLKISDSQLGDAAMYFCAYRSAVYNTDKLIFGTGTRLQVFP", "Vbeta": "KAGVTQTPRYLIKTRGQQVTLSCSPISGHRSVSWYQQTPGQGLQFLFEYFSETQRNKGNFPGRFSGRQFSNSRSEMNVSTLELGDSALYLCASSFSSYNEQFFGPGTRLTVL"}, "B6": {"name": "TCRCD4-TPT#87 (TCR, V domains shown)", "Valpha": "ELKVEQNPLFLSMQEGKNYTIYCNYSTTSDRLYWYRQDPGKSLESLFVLLSNGAVKQEGRLMASLDTKARLSTLHITAAVHDLSATYFCAVDMWNNNARLMFGDGTQLVVKP", "Vbeta": "KAGVTQTPRYLIKTRGQQVTLSCSPISGHRSVSWYQQTPGQGLQFLFEYFSETQRNKGNFPGRFSGRQFSNSRSEMNVSTLELGDSALYLCASSLAQSGANVLTFGAGSRLTVL"}, "B7": {"name": "TCRCD4-TPT#91 (TCR, V domains shown)", "Valpha": "EDQVTQSPEALRLQEGESSSLNCSYTVSGLRGLFWYRQDPGKGPEFLFTLYSAGEEKEKERLKATLTKKESFLHITAPKPEDSATYLCAVLGGSNYKLTFGKGTLLTVNP", "Vbeta": "NAGVTQTPKFQVLKTGQSMTLQCAQDMNHNSMYWYRQDPGMGLRLIYYSASEGTTDKGEVPNGYNVSRLNKREFSLRLESAAPSQTSVYFCAISRDSYEQYFGPGTRLTVT"}, "B8": {"name": "TCRCD4-TPT#48/2 (TCR, V domains shown)", "Valpha": "AQSVTQPDIHITVSEGASLELRCNYSYGATPYLFWYVQSPGQGLQLLLKYFSGDTLVQGIKGFEAEFKRSQSSFNLRKPSVHWSDAAEYFCAVGAYDMRFGAGTRLTVKP", "Vbeta": "DVKVTQSSRYLVKRTGEKVFLECVQDMDHENMFWYRQDPGLGLRLIYFSYDVKMKEKGDIPEGYSVSREKKERFSLILESASTNQTSMYLCASNRLNTEAFFGQGTRLTVV"}}, "test_in_all_cases": "cytokine release", "key": {"[1]": {"biological_target": "T1, hCMV pp65 peptide on HLA-DRB1*07:01 (human)", "T1 peptide": "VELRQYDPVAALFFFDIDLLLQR"}, "[2]": {"biological_target": "NY-ESO-1 peptide on HLA-DRB1*11:01 (human)"}, "[3]": {"biological_target": "T2, TPTE peptide on HLA-DRB1*13:01 (human)", "T2 peptide": "IFFDIKLLRNIPRWTHLLR"}, "[4]": {"biological_target": "T3, TPTE peptide on HLA-DRB1*15:01 (human)", "T3 peptide": "DVVYIFFDIKLLRNI"}}}
{"binder": "B1", "values": [{"measurement": "binding result", "setting": "[1]", "value": "recognises"}]}
{"binder": "B2", "values": [{"measurement": "binding result", "setting": "[1]", "value": "recognises"}]}
{"binder": "B3", "values": [{"measurement": "binding result", "setting": "[2]", "value": "recognises"}]}
{"binder": "B4", "values": [{"measurement": "binding result", "setting": "[2]", "value": "recognises"}]}
{"binder": "B5", "values": [{"measurement": "binding result", "setting": "[3]", "value": "recognises"}]}
{"binder": "B6", "values": [{"measurement": "binding result", "setting": "[3]", "value": "recognises"}]}
{"binder": "B7", "values": [{"measurement": "binding result", "setting": "[4]", "value": "recognises"}]}
{"binder": "B8", "values": [{"measurement": "binding result", "setting": "[4]", "value": "recognises"}]}
